The results in this text go back to article PMC4250914 (Scientific Reports, 2014).

The test concerns the target T1, His-VPS41 (human, UniProt P49754 1-854).
T1 sequence: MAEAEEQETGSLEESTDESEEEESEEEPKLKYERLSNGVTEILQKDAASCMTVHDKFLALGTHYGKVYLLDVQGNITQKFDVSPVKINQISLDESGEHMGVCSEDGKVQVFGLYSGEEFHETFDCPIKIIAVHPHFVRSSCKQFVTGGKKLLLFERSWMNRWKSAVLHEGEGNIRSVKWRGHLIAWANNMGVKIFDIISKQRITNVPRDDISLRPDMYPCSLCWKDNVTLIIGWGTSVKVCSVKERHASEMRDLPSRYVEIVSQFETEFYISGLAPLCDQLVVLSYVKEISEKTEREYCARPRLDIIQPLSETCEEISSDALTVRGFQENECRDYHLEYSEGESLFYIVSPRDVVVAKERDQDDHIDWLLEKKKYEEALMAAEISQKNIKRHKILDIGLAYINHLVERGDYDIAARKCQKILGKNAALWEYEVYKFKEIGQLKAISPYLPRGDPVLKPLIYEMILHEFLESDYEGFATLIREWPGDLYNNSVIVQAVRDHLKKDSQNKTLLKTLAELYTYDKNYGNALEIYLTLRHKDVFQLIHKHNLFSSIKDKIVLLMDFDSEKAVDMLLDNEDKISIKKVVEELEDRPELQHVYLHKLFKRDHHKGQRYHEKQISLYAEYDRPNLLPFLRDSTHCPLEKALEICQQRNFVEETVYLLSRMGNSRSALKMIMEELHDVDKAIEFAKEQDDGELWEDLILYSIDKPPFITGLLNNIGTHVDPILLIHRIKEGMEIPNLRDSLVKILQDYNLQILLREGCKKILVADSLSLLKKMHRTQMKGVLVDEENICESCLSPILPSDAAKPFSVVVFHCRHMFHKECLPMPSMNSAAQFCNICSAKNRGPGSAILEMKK
Kind of test: pull-down.

B1: GST-RILP (natural protein)
chain: MEPRRAAPGVPGWGSREAAGSASAAELVYHLAGALGTELQDLARRFGPEAAAGLVPLVVRALELLEQAAVGPAPDSLQVSAQPAEQELRRLREENERLRRELRAGPQEERALLRQLKEVTDRQRDELRAHNRDLRQRGQETEALQEQLQRLLLVNAELRHKLAAMQTQLRAAQDRERERQQPGEAATPQAKERARGQAGRPGHQHGQEPEWATAGAGAPGNPEDPAEAAQQLGRPSEAGQCRFSREEFEQILQERNELKAKVFLLKEELAYFQRELLTDHRVPGLLLEAMKVAVRKQRKKIKAKMLGTPEEAESSEDEAGPWILLSDDKGDHPPPPESKIQSFFGLWYRGKAESSEDETSSPAPSKLGGEEEAQPQSPAPDPPCSALHEHLCLGASAAPEA
Take B1: the binding result is given as “binds”.
